Laboratory results reported in patent publication US8178091B2, “Compositions and methods for the treatment of respiratory disorders” (University of Washington, priority 2007, dated 2012).
Entries after “also recorded” stand apart in the source; their conditions may differ.

Key:
[1] = biological target: insulin receptor (IR) (Homo sapiens, UniProt P06213); settings: cited from earlier work
[2] = biological target: T1, IGF-1R (Mus musculus, UniProt Q60751); test: IGF-1R expression in tissues after systemic A12 (IHC, Western blot); format: in vivo, mice
T1 construct: Western blot analysis for IGF-1R on lungs and spleen lysates at day 14 post-bleomycin; from tissue; host or cells: mouse lung, spleen, kidney
Protocol: ICR male mice are anesthetized under pentobarbital (60 mg/kg, i.v.) anesthesia, the cervical region is shaved and the skin is incised for about 4 mm from under the larynx region along the median line. Next, the muscle layer covering upper trachea is peeled off to expose the trachea. Using a micro-syringe, physiological saline or bleomycin hydrochloride (0.03 mg/animal, manufactured by Nippon Kayaku) is administered tracheally (50 μl/animal) from the tracheal smooth muscle region between cricoid cartilage. After the administration, the incised region is closed and antibiotics are administered into the thigh intramuscularly in order to prevent infection. IGF-1R inhibitor, e.g., antibody to IGF-1 receptor (A12). The A12 antibody was administered intraperitoneally at the time of bleomycin administration and subsequently 2-3× per week at a dose of 40 mg/kg (initial experiments involved dosing 3× per week, and later experiments dosed 2× per week; results were the same). […] Controls included bleomycin-treated animals receiving saline injection in place of A12 antibody. […] Lung hydroxyproline content is measured as a measure of fibrosis. Changes in lung tissue histology are also monitored. […] Bronchoalveolar lavage fluid (BALF) total cell count was determined by trypan blue exclusion and cell differential was determined on Diff quick (Dade Behring Ag, Düdingen, Switzerland) stained cytospins. […]

[3] = tested on: primary mouse lung fibroblasts; test: migration assay (FluoroBlok transwell); format: cell-based, C57BL6 mice; settings: IGF-1 100 ng/ml; A12 40 μg/ml preincubation
Protocol: Mouse lung fibroblasts were plated FluoroBlok transwell filters overnight, then IGF-1 (100 ng/ml), serum free media (negative control), 10% serum (positive control) was added to lower chamber. Some cells were preincubated with the blocking antibody to IGF-1R (A12, 40 μg/ml) before the addition of IGF-1. Cells were allowed to migrate through membrane for 4 hours @ 37° C. Migrated cells were counted with Fluorescent microscope. Each experiments was done in triplicate and repeated at least three times. Average cell count ±SD are presented.
For migration assays, primary mouse lung fibroblasts (50,000 cells/well) were plated in serum-free medium overnight on Fluoroblok transwell filters (8 μm pores, HTS FluoroBlok™ 24-Multiwell Insert System, BD Bioscience, Bedford, Mass.) pre-coated with fibronectin (50 μg/ml). Fluoroblok microporous membranes are specifically designed to detect by fluorescence only cells below the surface membrane. IGF-1 (100 ng/ml), 10% FBS (positive control) or serum-free media (negative control) was added to lower chamber. In some experiments, cells were preincubated with the blocking antibody to IGF-1R (A12, 40 μg/ml), for 1 hour. After 4 hours of migration, filters were fixed with formaldehyde and stained with DAPI (4′6-Diamidine-2′-phenylindole dihydrochloride, Roche, Indianapolis, Ind.). Migrated cells were counted in three predesignated fields for each filter. All experiments were done in triplicate and repeated at least three times.

[4] = format: in vivo, mice; settings: absence of bleomycin, not shown
Excerpt: In the saline control group, most deaths occurred between 7 and 10 days, as expected in this model. […] In the absence of bleomycin, administration of A12 alone had no affect on survival, lung histology, BAL protein concentration or cell count (not shown).

[5] = tested on: primary mouse lung fibroblasts; test: apoptosis assay (Cell Death Detection ELISA-plus), mouse lung fibroblasts; format: cell-based, C57BL6 mice; settings: serum-starved, 24 hours
Protocol: A. Quantification of TUNEL IHC by number of TUNEL positive cells/total # of cells. Average ±SD of two mice/condition and at least 500 cells analyzed per condition. […] Mouse lung fibroblasts were serum starved overnight and then incubated with indicated concentration of IGF-1R antibody, A12. Apoptosis was measured by Cell Death ELISA-plus (Roche Applied Science). All experiments were done in triplicate and repeated at least twice. Apoptosis index is defined as ratio of experimental condition OD405nm/control (media alone) OD405nm. The data was analyzed using one-way ANOVA with Tukey's HSD post hoc test, and statistical significance (*) was determined at p<0.05.
For apoptosis assays, primary mouse lung fibroblasts were plated in 96-well plates (20,000 cells/well) overnight and serum-starved for 24 hours. Functional blocking antibody to the type 1 IGF receptor (A12) was added to media at indicated concentration for 24 hours. At the end of the experiment, plates were centrifuged at 200×g for 10 minutes to prevent detached cells from being aspirated, and apoptosis was measured using the Cell Death Detection ELISA-plus System (Roche Applied Science, Penzberg, Germany), which detects cytosolic histone-complexed DNA fragments. All experiments were done in triplicate and repeated at least twice. Apoptosis index was defined as ratio of experimental condition OD405nm/control (media alone) OD405nm.

T1 sequence (Q60751 31-1373): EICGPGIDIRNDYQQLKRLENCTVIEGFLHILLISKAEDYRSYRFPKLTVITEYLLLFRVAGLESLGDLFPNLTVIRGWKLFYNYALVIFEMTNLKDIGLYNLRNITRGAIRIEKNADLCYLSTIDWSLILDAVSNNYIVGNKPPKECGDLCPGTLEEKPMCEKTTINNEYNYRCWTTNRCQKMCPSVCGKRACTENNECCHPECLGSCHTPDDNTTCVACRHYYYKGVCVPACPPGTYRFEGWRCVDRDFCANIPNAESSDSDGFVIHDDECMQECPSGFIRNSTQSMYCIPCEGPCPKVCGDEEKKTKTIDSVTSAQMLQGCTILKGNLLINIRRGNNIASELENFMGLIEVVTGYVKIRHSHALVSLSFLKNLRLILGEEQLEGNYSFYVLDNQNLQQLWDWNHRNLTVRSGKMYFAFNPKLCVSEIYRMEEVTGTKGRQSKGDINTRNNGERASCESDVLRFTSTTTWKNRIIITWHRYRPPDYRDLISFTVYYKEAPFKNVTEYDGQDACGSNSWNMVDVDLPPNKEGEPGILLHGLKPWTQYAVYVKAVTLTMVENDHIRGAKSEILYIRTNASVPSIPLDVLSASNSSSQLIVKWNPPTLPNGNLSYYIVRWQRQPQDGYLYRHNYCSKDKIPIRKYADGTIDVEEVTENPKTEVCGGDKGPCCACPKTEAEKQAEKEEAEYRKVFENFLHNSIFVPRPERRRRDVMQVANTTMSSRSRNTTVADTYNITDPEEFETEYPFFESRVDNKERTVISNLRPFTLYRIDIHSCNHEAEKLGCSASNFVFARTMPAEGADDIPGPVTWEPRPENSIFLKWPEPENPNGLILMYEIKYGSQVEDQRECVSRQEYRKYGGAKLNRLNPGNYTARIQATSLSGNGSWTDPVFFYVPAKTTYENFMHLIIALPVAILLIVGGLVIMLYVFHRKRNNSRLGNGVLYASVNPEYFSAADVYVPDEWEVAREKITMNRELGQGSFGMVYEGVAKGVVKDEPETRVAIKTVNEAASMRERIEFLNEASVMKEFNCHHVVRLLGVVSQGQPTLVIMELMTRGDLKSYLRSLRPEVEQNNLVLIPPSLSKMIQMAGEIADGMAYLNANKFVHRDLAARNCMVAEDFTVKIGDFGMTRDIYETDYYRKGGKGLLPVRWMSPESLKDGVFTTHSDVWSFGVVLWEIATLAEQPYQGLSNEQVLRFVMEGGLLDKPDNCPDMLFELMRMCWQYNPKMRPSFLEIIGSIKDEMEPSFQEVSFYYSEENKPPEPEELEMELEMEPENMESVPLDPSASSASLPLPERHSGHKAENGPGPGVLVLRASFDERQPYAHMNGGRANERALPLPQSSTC

For “A12: Function blocking antibody to the human type 1 IGF receptor, gift from ImClone Systems”, the “cross-reaction with insulin receptor” value [1] is listed as “does not cross-react”, the “IGF-1R expression in lungs” value ([2]; day 7 post-bleomycin, vs saline) is listed as “marked decrease in IGF-1R expression; also recorded: decreased IGF-1R expression” and the “IGF-1R in the kidney (Western blotting)” value ([2]; systemic effect of antibody) is listed as “down-regulation of IGF-1R in the kidney”. The “effect on IGF-1-induced migration” value [3] was “inhibited; also recorded: abrogated the increased migration”, the “survival, lung histology, BAL protein concentration or cell count” value [4] was “had no affect” and the “apoptosis of primary mouse lung fibroblasts” value [5] was “dose-dependent increase in apoptosis; also recorded: Increased apoptosis”. For the same substance, the “apoptosis of primary mouse lung fibroblasts” value ([5]; listed as IGF-1R antibody) was “increased apoptosis”.
